The target in assay [1] is Retromer (His10-SNAP-VPS26/VPS35/VPS29 trimer, AF488-labeled) (human) (UniProt O75436).
For assay [2] the target is unchanged. The source holds these as a separate data set.

Regarding “Retromer (His10-SNAP-VPS26/VPS35/VPS29 trimer, AF488-labeled) (from UniProt O75436;Q96QK1;Q9UBQ0) (complex)”, in assay [1], the percent of particles that are dimers came to 35%, the percent of particles that are monomers amounted to 18%, the percent of particles that are pentamers or higher-order oligomers up to ten was 10% and the percent of particles that are tetramers was found to be 13%. This substance also displayed a percent of particles that are trimers in assay [1] of 24%. The substance also had a mean Retromer complexes per cluster (Retromer complexes per cluster) in assay [2] of 2.7.

The values above are taken from doi:10.1101/2020.03.31.018150.
